Experimental data reported in patent publication US20110311508A1 (NORTHWESTERN UNIVERSITY, published 2011).

Target: the molecule itself
Assay: self-association (trimerization); EGS crosslinking of K562 cell extracts, SDS-PAGE, western blot
Excerpt: FIG. 9: The HSF1 K80Q mutant is not defective in trimerization ability. A prerequisite of stable HSF binding to DNA is the formation of trimeric HSF complexes. Therefore, it is conceivable that mutations of K80 disrupted proper HSF1 folding or the stress-induced formation of HSF trimers. To explore this possibility, e a cross-linking assay was used to determine the formation of higher-order complexes upon heat shock. K562 cells were transfected with WT Myc-HSF1, Myc-HSF1 K80Q or Myc-HSF1 M391K, L395P, a previously characterized HSF1 mutant that is constitutively trimeric (14). Cells were treated with or without heat shock (HS, 42° C., 20 minutes) followed by treatment with the EGS crosslinking agent. Protein extracts were separated by SDS-PAGE and western blot analysis was performed with the indicated antibodies. The arrow indicates monomeric HSF1 and the arrowhead marks trimeric HSF1.

B1: Myc-HSF1 K80Q (other)
chain: MDLPVGPGAAGPSNVPAFLTKLWTLVSDPDTDALICWSPSGNSFHVFDQGQFAKEVLPKYFKHNNMASFVRQLNMYGFRQVVHIEQGGLVKPERDDTEFQHPCFLRGQEQLLENIKRKVTSVSTLKSEDIKIRQDSVTKLLTDVQLMKGKQECMDSKLLAMKHENEALWREVASLRQKHAQQQKVVNKLIQFLISLVQSNRILGVKRKIPLMLNDSGSAHSMPKYSRQFSLEHVHGSGPYSAPSPAYSSSSLYAPDAVASSGPIISDITELAPASPMASPGGSIDERPLSSSPLVRVKEEPPSPPQSPRVEEASPGRPSSVDTLLSPTALIDSILRESEPAPASVTALTDARGHTDTEGRPPSPPPTSTPEKCLSVACLDKNELSDHLDAMDSNLDNLQTMLSSHGFSVDTSALLDLFSPSVTVPDMSLPDLDSSLASIQELLSPQEPPRPPEAENSSPDSGKQLVHYTAQPLFLLDPGSVDTGSNDLPVLFELGEGSYFSEGDGFAEDPTISLLTGSEPPKAKDPTVS
notes: also called K80Q mutant; K80Q HSF1; not shown: Myc tag
- binding result: binds
